Results as given in PMC5799870.

Biological target: soluble human FcRn (human) (UniProt P55899)
Experiment: SPR
Details: natural protein; remark: other sources report otherwise

Kd: 13.2 µM
Substance: Recombumin-NHBn34 (from UniProt P02768 25-609)
